Data taken from paper PMC10002482, “BMPER Improves Vascular Remodeling and the Contractile Vascular SMC Phenotype” (International Journal of Molecular Sciences, 2023).
Values belong to the binder of their own block, whether it stands above or below them.

Tests used:
[1] = molecular target: T1, recombinant BMPER (BMP endothelial cell precursor-derived regulator) ( (recombinant human and …, UniProt Q8N8U9 40-685)); assay: SPR; BIAcore 2000; IGFBP-4 immobilised at 360 RU on CM5 by amine coupling; 0-320 nM BMPER injected in HBS-EP (0.01 M HEPES pH 7.4, 0.15 M NaCl, 3 mM EDTA, 0.005% P20), 180 s association, 180 s dissociation; 1:1 model with mass transfer; apparent KD = kd/ka; details: both partners purified
T1 construct: BMPER, recombinant protein used as analyte in SPR; whether this holds for the SPR proteins is surmised; Secreted glycoprotein; also called soluble BMPER; source: recombinant
T1 sequence (Q8N8U9 40-685): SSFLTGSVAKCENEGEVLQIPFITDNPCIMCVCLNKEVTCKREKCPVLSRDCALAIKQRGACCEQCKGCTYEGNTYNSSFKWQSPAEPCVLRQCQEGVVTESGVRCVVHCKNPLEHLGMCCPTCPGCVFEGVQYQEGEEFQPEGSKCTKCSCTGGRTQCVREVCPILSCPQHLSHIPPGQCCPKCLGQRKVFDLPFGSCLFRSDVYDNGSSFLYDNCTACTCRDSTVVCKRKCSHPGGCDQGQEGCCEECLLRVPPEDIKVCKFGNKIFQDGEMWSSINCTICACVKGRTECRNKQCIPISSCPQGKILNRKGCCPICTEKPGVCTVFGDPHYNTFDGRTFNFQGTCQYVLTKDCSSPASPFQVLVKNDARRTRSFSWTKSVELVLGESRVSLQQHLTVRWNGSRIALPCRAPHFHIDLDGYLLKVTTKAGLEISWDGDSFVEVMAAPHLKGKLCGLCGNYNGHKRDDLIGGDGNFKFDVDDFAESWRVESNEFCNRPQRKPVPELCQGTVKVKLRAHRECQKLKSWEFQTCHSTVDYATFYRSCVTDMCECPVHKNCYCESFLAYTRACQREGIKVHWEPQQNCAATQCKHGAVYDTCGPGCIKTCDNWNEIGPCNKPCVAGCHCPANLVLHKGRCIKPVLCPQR

[2] = molecular target: T1, recombinant BMPER (BMP endothelial cell …); assay: SPR; BIAcore 2000; BMP-4 immobilised at 430 RU on CM5 by amine coupling; 0-320 nM BMPER or IGFBP-4 injected in HBS-EP; 1:1 model with mass transfer; apparent KD = kd/ka; details: both partners purified

Kd [1]: 6.04 ± 1.86 nM
B1: recombinant IGFBP-4 (insulin-like growth factor-binding protein 4) (natural protein, UniProt P22692 22-258, looked up)
chain: DEAIHCPPCSEEKLARCRPPVGCEELVREPGCGCCATCALGLGMPCGVYTPRCGSGLRCYPPRGVEKPLHTLMHGQGVCMELAEIEAIQESLQPSDKDEGDHPNNSFSPCSAHDRRCLQKHFAKIRDRSTSGGKMKVNGAPREDARPVPQGSCQSELHRALERLAASQSRTHEDLYIIPIPNCDRNGNFHPKQCHPALDGQRGKCWCVDRKTGVKLPGGLEPKGELDCHQLADSFRE
notes: IGFBP4, recombinant protein immobilised or injected in SPR; whether this holds for the SPR proteins is surmised; source: recombinant

Kd [2]: 1.5 nM
B2: BMP-4 (bone morphogenetic protein 4) (ligand, UniProt P12644 293-408, looked up)
chain: SPKHHSQRARKKNKNCRRHSLYVDFSDVGWNDWIVAPPGYQAFYCHGDCPFPLADHLNSTNHAIVQTLVNSVNSSIPKACCVPTELSAISMLYLDEYDKVVLKNYQEMVVEGCGCR
notes: BMP4, immobilised on a CM5 chip in SPR
